Read-outs that look alike come from different tables or passages of the source.
T1: TaHRP1:GST (UniProt A0A3B6H0D8 1-141)
T1 sequence: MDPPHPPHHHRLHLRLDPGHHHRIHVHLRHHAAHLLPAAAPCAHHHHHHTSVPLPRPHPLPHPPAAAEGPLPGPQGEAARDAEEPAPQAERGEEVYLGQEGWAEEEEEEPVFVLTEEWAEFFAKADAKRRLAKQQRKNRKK

B1: Probe-DNA (HBS promoter probe) (dsDNA)
DNA 1: AAAACCAAAATAACTAGTTAAAGAAGAATGAAAGAGTTAAATTCCATTTATTTTT
DNA 2: AAAAATAAATGGAATTTAACTCTTTCATTCTTCTTTAACTAGTTATTTTGGTTTT
B2: mProbe-DNA (HBS mutated) (dsDNA)
DNA 1: AAAACCAAAATAACTAGTTAGGCGGCGGTGAAAGAGTTAAATTCCATTTATTTTT
DNA 2: AAAAATAAATGGAATTTAACTCTTTCACCGCCGCCTAACTAGTTATTTTGGTTTT

How the values were obtained:
[1] = target: T1, TaHRP1:GST; test: EMSA
[2] = target: T1, TaHRP1:GST; test: EMSA; remark: listed apart in the source

Binder | binding result [1] | binding result [2]
B1 | binds | –
B2 | – | no binding
